Source: patent US20250057840

Legend:
[1] = target: myc-tagged MAGI1 deletion of GUK-WW domains (murine, pCDNA3.1) (UniProt Q6RHR9)
[2] = target: GFP-MAGI1 Y373F (human MAGI1c-Y373F-GFP) (UniProt Q96QZ7)
[3] = target: myc-tagged MAGI1 deletion of WW domain (murine, pCDNA3.1) (UniProt Q6RHR9)
[4] = target: myc-tagged MAGI1 deletion of GUK domain (murine, pCDNA3.1) (UniProt Q6RHR9)
[5] = target: GFP-tagged MAGI1 WT (human MAGI1c, pCMV6-AC-GFP-MAGI1c WT, Origene #RG212712) (UniProt Q96QZ7)
Chain of GFP-tagged MAGI1 WT (human MAGI1c, pCMV6-AC-GFP-MAGI1c WT, Origene #RG212712) (Q96QZ7 other isoform, or with tags, fused parts or gaps): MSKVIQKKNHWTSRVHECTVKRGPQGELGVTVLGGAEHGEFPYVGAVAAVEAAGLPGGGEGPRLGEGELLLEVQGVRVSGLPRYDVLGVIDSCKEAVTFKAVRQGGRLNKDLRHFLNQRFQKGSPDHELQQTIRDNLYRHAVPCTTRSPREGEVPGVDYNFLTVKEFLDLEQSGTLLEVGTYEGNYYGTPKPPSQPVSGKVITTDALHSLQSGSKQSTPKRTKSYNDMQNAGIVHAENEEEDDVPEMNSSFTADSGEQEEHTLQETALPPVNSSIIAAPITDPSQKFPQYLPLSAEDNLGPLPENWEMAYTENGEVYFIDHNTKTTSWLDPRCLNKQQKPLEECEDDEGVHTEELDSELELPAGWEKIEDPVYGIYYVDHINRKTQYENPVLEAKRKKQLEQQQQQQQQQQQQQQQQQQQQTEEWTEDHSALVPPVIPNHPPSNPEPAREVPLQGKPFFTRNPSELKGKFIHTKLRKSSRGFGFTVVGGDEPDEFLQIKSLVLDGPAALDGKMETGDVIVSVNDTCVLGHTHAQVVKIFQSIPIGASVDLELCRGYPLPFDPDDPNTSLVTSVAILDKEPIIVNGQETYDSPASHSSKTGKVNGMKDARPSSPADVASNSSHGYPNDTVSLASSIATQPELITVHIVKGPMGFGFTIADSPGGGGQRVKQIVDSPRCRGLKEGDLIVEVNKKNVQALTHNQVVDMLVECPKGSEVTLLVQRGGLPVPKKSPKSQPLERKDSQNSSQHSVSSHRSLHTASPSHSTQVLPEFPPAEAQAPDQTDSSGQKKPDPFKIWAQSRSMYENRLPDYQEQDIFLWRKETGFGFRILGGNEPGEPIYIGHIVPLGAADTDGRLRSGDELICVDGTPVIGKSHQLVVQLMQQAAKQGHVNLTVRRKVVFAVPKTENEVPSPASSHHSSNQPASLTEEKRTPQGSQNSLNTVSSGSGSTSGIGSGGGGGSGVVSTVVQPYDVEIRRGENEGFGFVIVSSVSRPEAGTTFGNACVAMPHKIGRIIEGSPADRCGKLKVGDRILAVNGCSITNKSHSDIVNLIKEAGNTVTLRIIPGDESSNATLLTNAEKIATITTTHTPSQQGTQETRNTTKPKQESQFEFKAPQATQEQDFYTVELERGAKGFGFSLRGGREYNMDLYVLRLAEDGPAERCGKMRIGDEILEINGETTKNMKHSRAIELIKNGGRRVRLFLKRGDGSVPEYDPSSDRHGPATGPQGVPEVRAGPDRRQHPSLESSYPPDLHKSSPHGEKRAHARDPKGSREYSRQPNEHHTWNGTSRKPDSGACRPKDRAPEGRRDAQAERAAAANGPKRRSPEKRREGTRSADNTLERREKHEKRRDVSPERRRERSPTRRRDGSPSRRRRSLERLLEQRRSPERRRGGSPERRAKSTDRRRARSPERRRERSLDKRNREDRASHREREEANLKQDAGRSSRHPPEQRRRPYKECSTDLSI

Chain of myc-tagged MAGI1 deletion of GUK domain (murine, pCDNA3.1) (Q6RHR9 other isoform, or with tags, fused parts or gaps): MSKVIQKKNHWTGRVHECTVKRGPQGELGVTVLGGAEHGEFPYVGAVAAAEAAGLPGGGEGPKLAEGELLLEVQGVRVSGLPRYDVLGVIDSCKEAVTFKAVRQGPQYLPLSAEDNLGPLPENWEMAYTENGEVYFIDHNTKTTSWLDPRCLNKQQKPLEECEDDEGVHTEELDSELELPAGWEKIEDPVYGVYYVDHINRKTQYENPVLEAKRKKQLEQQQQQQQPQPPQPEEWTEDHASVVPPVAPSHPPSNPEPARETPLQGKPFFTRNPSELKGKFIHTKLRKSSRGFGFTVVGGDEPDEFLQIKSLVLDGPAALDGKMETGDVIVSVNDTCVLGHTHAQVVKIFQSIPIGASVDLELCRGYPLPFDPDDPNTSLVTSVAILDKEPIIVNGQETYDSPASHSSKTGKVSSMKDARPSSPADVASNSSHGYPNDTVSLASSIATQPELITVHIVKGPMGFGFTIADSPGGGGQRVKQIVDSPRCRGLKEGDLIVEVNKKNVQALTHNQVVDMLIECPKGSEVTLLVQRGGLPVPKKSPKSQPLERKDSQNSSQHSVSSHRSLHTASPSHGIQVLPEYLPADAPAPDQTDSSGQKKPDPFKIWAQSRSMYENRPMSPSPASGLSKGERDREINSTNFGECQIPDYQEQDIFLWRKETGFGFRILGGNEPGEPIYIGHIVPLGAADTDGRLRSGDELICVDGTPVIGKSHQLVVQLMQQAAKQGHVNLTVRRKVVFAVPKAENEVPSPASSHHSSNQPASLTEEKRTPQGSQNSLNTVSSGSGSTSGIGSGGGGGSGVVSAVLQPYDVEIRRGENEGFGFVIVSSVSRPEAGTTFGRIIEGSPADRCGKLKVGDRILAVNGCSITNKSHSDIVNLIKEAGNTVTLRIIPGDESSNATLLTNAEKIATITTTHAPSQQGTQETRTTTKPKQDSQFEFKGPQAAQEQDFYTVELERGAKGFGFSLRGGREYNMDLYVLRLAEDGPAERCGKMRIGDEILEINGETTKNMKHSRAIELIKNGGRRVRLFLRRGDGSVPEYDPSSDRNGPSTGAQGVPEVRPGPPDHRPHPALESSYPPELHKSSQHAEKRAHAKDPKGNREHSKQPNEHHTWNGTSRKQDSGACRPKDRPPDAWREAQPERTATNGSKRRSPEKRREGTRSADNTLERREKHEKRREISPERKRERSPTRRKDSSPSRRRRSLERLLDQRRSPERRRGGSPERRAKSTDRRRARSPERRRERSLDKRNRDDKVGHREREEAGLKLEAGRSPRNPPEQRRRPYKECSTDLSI
Chain of GFP-MAGI1 Y373F (human MAGI1c-Y373F-GFP) (Q96QZ7 other isoform, or with tags, fused parts or gaps Y373F Y373F): as the sequence (Q96QZ7 other isoform, or with tags, fused parts or gaps) above, with Y373F counted along it
Chain of myc-tagged MAGI1 deletion of WW domain (murine, pCDNA3.1) (Q6RHR9 other isoform, or with tags, fused parts or gaps): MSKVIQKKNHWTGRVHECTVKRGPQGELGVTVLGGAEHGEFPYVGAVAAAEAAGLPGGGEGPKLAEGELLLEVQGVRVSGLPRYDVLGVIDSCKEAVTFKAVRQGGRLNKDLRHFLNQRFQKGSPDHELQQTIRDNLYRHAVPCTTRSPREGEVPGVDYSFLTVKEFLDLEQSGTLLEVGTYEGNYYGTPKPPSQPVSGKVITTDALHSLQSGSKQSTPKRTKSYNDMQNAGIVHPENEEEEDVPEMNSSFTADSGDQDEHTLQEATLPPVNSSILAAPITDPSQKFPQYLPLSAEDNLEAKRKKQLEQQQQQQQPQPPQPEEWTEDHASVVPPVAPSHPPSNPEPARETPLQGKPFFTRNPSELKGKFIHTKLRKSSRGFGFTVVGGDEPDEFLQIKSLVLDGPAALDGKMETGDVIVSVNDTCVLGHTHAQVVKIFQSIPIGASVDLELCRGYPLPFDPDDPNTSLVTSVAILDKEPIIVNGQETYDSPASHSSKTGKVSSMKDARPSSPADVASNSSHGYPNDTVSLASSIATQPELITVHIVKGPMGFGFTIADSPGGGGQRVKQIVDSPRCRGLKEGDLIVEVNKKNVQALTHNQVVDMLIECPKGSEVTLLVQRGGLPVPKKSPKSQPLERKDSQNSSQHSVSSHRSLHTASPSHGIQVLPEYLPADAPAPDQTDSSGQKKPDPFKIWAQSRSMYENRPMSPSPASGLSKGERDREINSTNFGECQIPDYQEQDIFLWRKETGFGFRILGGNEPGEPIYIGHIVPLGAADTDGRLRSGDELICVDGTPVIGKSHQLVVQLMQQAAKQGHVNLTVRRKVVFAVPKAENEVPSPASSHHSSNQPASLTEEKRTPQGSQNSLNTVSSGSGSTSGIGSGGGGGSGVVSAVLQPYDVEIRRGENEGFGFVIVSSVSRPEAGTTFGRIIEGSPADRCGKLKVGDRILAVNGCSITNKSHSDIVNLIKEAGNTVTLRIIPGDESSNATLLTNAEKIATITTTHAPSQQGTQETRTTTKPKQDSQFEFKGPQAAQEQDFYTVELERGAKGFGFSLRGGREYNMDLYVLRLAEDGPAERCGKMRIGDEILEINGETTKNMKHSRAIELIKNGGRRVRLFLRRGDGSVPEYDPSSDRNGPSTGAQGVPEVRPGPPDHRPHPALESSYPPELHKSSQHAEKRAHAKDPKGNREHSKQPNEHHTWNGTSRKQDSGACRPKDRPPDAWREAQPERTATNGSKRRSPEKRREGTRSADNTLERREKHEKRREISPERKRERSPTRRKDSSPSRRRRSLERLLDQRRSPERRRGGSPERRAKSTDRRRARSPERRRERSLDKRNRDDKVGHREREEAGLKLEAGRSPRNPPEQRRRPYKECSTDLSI

## proto-oncogene tyrosine-protein kinase Src (SRC), wild type, expressed from pCMV SRC WT in 293T cells
[1]
  Y373 phosphorylation (western blot with pMAGI1 Y373 antisera, 293T co-expression): Y373 phosphorylation was abolished when WW domain was absent but not GUK
[2]
  phosphorylation of MAGI1 at Y373 (western blot with rabbit antisera against pMAGI1 Y373, 293T co-expression): co-expression of SRC and WT MAGI1 but not Y373F mutant resulted in strong phosphorylation of MAGI1 at Y373
[3]
  Y373 phosphorylation (western blot with pMAGI1 Y373 antisera, 293T co-expression): Y373 phosphorylation was abolished when WW domain was absent but not GUK
[4]
  Y373 phosphorylation (western blot with pMAGI1 Y373 antisera, 293T co-expression): Y373 phosphorylation was abolished when WW domain was absent but not GUK
[5]
  phosphorylation of MAGI1 at Y373 (western blot with rabbit antisera against pMAGI1 Y373, 293T co-expression): co-expression of SRC and WT MAGI1 but not Y373F mutant resulted in strong phosphorylation of MAGI1 at Y373
